Measured values reported in patent US8034904B2, “Anti-IGF-I receptor antibody” (Immunogen Inc., priority 2002, dated 2011).

Columns and labels:
[1] = test system: HT-29 colon cancer cells; test: Growth and survival of HT-29 cells (MTT assay, colony formation); assay type: cell-based, human
Experimental: (§1) Several human tumor cell lines were tested in serum-free conditions for their growth and survival response to IGF-I. These cell lines were treated with EM164 antibody in the presence of IGF-I, IGF-II, or serum, and their growth and survival responses were measured using an MTT assay after 2-4 days. Approximately 1500 cells were plated in a 96-well plate in regular medium with serum, which was replaced with serum-free medium the following day (either serum-free RPMI medium supplemented with transferrin and BSA, or phenol-red free medium as specified by Dufourny, B. et al., 1997, J. Biol. Chem., 272, 31163-31171). After one day of growth in serum-free medium, the cells were incubated with about 75 μL of 10 μg/mL antibody for 30 min.-3 h, followed by the addition of 25 μL of IGF-I (or IGF-II or serum) solution to obtain a final concentration of 10 ng/mL IGF-I, or 20 ng/mL IGF-II, or 0.04-10% serum. In some experiments, the cells were stimulated first with IGF-I for 15 min before the addition of EM164 antibody, or both IGF-I and EM164 antibody were added together. The cells were then allowed to grow for another 2-3 days. A solution of MTT (3-(4,5)-dimethylthiazol-2-yl)-2,5-diphenyltetrazolium bromide; 25 μL of a 5 mg/mL solution in PBS) was then added and the cells were returned to the incubator for 2-3 h. The medium was then removed and replaced by 100 μL DMSO, mixed, and the absorbance of the plate was measured at 545 nm.

[2] = test system: HT-3 (cervical) cells; test: Growth and survival of HT-3 cells (MTT assay); assay type: cell-based, human; conditions: 5-10 μg/mL EM164, 10 ng/mL IGF-I
Experimental: as §1, with “A solution of MTT (3-(4,5)-dimethylthiazol-2-yl)-2,5-diphenyltetrazolium bromide; 25 μL of a 5 mg/mL solution in PBS) was then added and the cells were returned to the incubator for 2-3 h.” left out

[3] = test system: insulin receptor substrate-1 (IRS-1); test: IGF-I-stimulated IRS-1 phosphorylation in MCF-7 cells (ELISA, associated p85 PI-3-kinase); assay type: cell-based, human
Experimental: In FIG. 5, MCF-7 cells were treated with 5 μg/mL antibody (EM164 or IR3) in serum-free medium for 2 h, followed by stimulation with 50 ng/mL IGF-I for 10 min at 37° C. Anti-IRS-1 antibody (rabbit polyclonal; Upstate Biotechnology) was indirectly captured by incubation with coated goat-anti-rabbit-IgG antibody on an ELISA plate, which was then used to capture IRS-1 from the cell lysate samples by overnight incubation at 4° C. The wells were then incubated with mouse monoclonal anti-p85-PI-3-kinase antibody (Upstate Biotechnology) for 4 h, followed by treatment with goat-anti-mouse-IgG-antibody-HRP conjugate for 30 min. The wells were then washed and detected using ABTS/H2O2 substrate (FIG. 5).

[4] = molecular target: T1, IGF-I receptor of MCF-7 cells (Homo sapiens, UniProt P08069); test: Immunoprecipitation of IGF-I receptor from MCF-7 lysate; assay type: binding; conditions: MCF-7 lysate (human)
T1 construct: human breast cancer MCF-7 cells, which expressed IGF-I receptor; endogenous in cells; host or cells: MCF-7 human breast cancer cells
Source text: A Western blot of the EM164 antibody immunoprecipitate was detected using a rabbit polyclonal anti-IGF-I receptor beta chain (C-terminus) antibody (Santa Cruz Biotechnology) and a goat-anti-rabbit-IgG-antibody-horseradish peroxidase conjugate, followed by washes and enhanced chemiluminescence (ECL) detection.

B1: EM164: murine anti-IGF-I receptor monoclonal antibody, IgG1 with kappa light chain, hybridoma ATCC PTA-4457; heavy SEQ ID NO:7, light SEQ ID NO:8 (antibody)
heavy: QVQLQQSGAELVKPGASVKLSCKASGYTFTSYWMHWVKQRPGQGLEWIGEINPSNGRTNYNEKFKRKATLTVDKSSSTAYMQLSSLTSEDSAVYYFARGRPDYYGSSKWYFDVWGAGTTVTVSS
light: DVLMTQTPLSLPVSLGDQASISCRSSQSIVHSNVNTYLEWYLQKPGQSPKLLIYKVSNRFSGVPDRFSGSGSGTDFTLRISRVEAEDLGIYYCFQGSHVPPTFGGGTKLEIKR
modifications: antibody heavy chain; antibody light chain
[1]
  colony size of HT29 colon cancer cells: greatly reduced
[1]; HT-29, 5-10 μg/mL EM164, 10 ng/mL IGF-I
  Inhibition by EM164 antibody of IGF-I-stimulated growth in serum-free medium: 60%
[1]; HT-29, 5-10 μg/mL EM164, MTT or colony formation assay
  % Inhibition by EM164 antibody of Growth/survival of cells in 1.25-10% serum: Yes
[2]
  Inhibition by EM164 antibody of IGF-I-stimulated growth in serum-free medium: 70-90%
[3]; 5 μg/mL antibody 2 h, 50 ng/mL IGF-I 10 min, compared with IR3
  inhibition of IGF-1-stimulated IRS-1 phosphorylation: more effective
[3]; in the absence of IGF-I
  agonistic activity on IRS-1 phosphorylation: did not show any agonistic activity
[4]
  immunoprecipitation of IGF-I receptor: can be used for immunoprecipitation of IGF-I receptor
